Experimental findings from publication PMC2822742 are described below.

This experiment addresses RBPJκ in Raji cell extract (human (endogenous in Raji)) (UniProt Q06330). Nature of the experiment: native gel or EMSA. On the technique in general: Mobility shift assays separate free from complexed probe on a gel.
Chain of UniProt Q06330 (Q06330 whole entry): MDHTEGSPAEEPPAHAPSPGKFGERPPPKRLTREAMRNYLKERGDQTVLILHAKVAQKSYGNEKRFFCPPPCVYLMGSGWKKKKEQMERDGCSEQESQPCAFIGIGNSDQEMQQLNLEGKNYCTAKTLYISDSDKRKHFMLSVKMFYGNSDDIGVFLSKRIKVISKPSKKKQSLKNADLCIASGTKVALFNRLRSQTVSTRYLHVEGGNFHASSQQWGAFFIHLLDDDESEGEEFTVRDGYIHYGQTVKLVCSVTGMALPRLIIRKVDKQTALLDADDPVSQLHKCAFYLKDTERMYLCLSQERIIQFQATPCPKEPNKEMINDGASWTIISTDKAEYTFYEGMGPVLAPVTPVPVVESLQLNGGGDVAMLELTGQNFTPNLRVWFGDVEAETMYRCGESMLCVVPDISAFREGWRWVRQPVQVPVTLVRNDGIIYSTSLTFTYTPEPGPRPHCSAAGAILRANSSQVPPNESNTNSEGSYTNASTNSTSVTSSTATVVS

“EBNA2 in Raji cell extract (from UniProt P12978 1-487) (natural protein)” came in with a decrease in EMSA signal intensity, AdOx-treated against untreated extract of 30 to 67%.
